What all share (experiment): cryo-EM structure; intact Bacillus PS3 ATP synthase in GDN, three rotational states at 2.9, 2.9 and 3.1 Å; focused refinement of the membrane-embedded region at 3.3 Å
Data set [1] deals with the molecule itself.
The target in data set [2] is T1, Bacillus PS3 ATP synthase subunit α (Bacillus PS3, UniProt P09219 1-502).
T1 construct: ATP synthase subunit alpha, Bacillus PS3; three copies in the complex (α3β3γδε ab2c10); Part of the intact complex α3β3γδε ab2c10; also called αDP; source: E. coli strain DK8, plasmid pTR-ASDS; purified as part of the whole ATP synthase (GDN, HisTrap HP, Superose 6)
Conditions: both partners purified.

The target in data set [3] is T2, Bacillus PS3 ATP synthase subunit γ (Bacillus PS3, UniProt P09222 5-286).
T2 construct: ATP synthase subunit gamma, Bacillus PS3; source: E. coli strain DK8, plasmid pTR-ASDS; purified as part of the whole ATP synthase (GDN, HisTrap HP, Superose 6)
Conditions: both partners purified.

T1 sequence (P09219 whole entry): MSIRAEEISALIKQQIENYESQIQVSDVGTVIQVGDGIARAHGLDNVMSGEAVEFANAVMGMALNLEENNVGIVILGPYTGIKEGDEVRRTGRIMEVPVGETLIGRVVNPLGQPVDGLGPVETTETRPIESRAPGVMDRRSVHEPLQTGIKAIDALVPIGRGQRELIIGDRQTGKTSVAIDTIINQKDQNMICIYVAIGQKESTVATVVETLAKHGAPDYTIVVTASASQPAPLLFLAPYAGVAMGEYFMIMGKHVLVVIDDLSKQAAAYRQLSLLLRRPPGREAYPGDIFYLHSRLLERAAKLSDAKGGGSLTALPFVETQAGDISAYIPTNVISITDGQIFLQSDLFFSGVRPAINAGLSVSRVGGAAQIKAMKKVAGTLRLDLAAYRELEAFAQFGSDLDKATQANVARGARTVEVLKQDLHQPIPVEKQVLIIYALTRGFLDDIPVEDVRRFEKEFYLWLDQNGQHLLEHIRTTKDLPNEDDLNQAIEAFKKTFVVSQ
T2 sequence (P09222 5-286): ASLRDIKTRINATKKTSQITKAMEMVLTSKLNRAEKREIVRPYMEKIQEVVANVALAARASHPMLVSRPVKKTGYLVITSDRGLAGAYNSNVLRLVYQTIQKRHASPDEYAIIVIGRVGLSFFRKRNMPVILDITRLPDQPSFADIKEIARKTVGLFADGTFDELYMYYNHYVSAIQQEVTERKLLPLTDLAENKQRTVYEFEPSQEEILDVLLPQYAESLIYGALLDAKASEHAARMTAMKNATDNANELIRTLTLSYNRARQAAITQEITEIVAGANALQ

B1: Bacillus PS3 ATP synthase subunit c (natural protein, UniProt P00845 1-72, looked up)
chain: MSLGVLAAAIAVGLGALGAGIGNGLIVSRTIEGIARQPELRPVLQTTMFIGVALVEALPIIGVVFSFIYLGR
notes: ATP synthase subunit c, Bacillus PS3; ring of ten copies; also called c-ring; c10; source: E. coli strain DK8, plasmid pTR-ASDS; purified as part of the whole ATP synthase (GDN, HisTrap HP, Superose 6); copies: 10
B1: the “stoichiometry N” value in data set [1] was 10.

B2: Bacillus PS3 ATP synthase subunit ε (natural protein, UniProt P07678 1-132, looked up)
chain: MKTIHVSVVTPDGPVYEDDVEMVSVKAKSGELGILPGHIPLVAPLEISAARLKKGGKTQYIAVSGGFLEVRPDNVTILAQAAERAEDIDVLRAKARKSGRTPLQSQQDDIDFKRAELALKRAMNRLSVAEMK
notes: ATP synthase subunit epsilon, Bacillus PS3; source: E. coli strain DK8, plasmid pTR-ASDS; purified as part of the whole ATP synthase (GDN, HisTrap HP, Superose 6)
Turning to B2, the binding result in data set [2] and in data set [3] was “binds” each time.

The term stoichiometry N denotes a count of units in the complex or per binding partner.

Values taken from doi:10.1101/463968, “Structure of a bacterial ATP synthase” (bioRxiv, 2018).
